The record followed here is publication PMC3708727 (Molecular Biology of the Cell, 2013).

Assay [1] concerns the target rabbit muscle actin filaments (rabbit, UniProt P68135 1-377). Put plainly: co-sedimentation.
The target of assay [2] is T1, histidine (His)-tagged full-length dAbp1 (Dictyostelium discoideum, UniProt Q557J6 1-481).
T1 sequence (looked up): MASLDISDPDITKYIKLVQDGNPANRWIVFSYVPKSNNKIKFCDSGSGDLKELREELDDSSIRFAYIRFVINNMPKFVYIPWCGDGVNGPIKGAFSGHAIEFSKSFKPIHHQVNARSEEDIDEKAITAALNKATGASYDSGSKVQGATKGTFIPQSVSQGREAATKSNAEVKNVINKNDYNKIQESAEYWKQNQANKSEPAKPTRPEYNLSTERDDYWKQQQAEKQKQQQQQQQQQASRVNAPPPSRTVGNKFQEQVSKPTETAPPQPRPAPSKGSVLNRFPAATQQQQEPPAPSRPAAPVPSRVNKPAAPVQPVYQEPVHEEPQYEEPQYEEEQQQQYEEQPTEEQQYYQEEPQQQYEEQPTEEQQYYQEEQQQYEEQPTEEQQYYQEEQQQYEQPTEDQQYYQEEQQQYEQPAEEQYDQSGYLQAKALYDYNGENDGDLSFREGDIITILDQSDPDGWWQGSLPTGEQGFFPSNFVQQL
Put plainly: pull-down.

In assay [3] the target is T2, His-tagged dAbp1-237-313 fragment (Dictyostelium discoideum, UniProt Q557J6 237-313).
T2 sequence (looked up): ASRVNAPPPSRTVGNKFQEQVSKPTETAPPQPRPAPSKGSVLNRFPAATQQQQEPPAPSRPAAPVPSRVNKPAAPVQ
Put plainly: pull-down.

B1: GST-dAbp1 (natural protein)
chain: T1 sequence (looked up)
For B1, the “Kd in the presence of an equimolar amount of GST-PakB-1-120” value in assay [1] was found to be 1.1 ± 0.4 µM.

B2: GST-dAbp1-SH3 domain fusion protein (domain or fragment, Dictyostelium discoideum, UniProt Q557J6 426-481, looked up)
chain: QAKALYDYNGENDGDLSFREGDIITILDQSDPDGWWQGSLPTGEQGFFPSNFVQQL
As for B2, the binding result in assay [2] and in assay [3] was “binds” throughout.
